Measurements: patent US20140154245A1 (L AND K BIOMED, published 2014)

B1: mouse anti-EMAPII monoclonal antibody (antibody, V domains shown)
VH: QVQLQQSGAELARPGASVKMSCKASGYTFTSYTMHWVKQRPGQGLEWIGYINPSSGFTNYNQKFKDKATLTADKSSSTAYMQLSSLTSEDSAVYYCASRFAYWGQG
VL: DIVMTQSHKFMSTSVGDRVSITCKASQDVSTAVAWYQQKPGQSPKLLIFSASYRYTGVPDRFTGSGSGTDFTFTISSVQAEDLAVYYCQQHYSTPYTFGQG
notes: Mouse IgG1 with kappa light chain, from a hybridoma; also called murine EMAPII mAb; parental murine anti-EMAPII antibody
B2: mouse/human chimeric antibody BAP015-1 (antibody, V domains shown)
VH: B1 VH
VL: B1 VL
notes: VL is fused to a human kappa constant region and VH to a human IgG1 constant region (full-length IgG1, from CHO-S supernatant); Three plasmid clones of the same construct were tested; they are treated as one molecule; also called chimeric anti-EMAPII antibody; chimeric clone BAP015-1

Key:
[1] = target: T1, human EMAPII (endothelial monocyte activating polypeptide II) antigen (human, UniProt Q12904 1-312, limits assumed); test: ELISA, EMAPII antigen coated on the plate, antibody titrated
T1 construct: also called EMAPII antigen; p43
T1 sequence: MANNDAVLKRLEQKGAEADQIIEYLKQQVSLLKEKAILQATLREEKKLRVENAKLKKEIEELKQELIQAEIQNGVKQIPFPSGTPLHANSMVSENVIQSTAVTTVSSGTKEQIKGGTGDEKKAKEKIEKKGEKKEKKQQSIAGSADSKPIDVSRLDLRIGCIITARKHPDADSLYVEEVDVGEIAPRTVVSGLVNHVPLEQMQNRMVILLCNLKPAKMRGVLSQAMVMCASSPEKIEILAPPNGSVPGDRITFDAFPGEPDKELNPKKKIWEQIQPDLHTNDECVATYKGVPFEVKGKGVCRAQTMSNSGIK
Method: (§1) Wells of a 96 well plate were coated with 100 μl of different concentrations of EMAPII antigen (10 μg/ml, 5 μg/ml, 2.5 μg/ml, 1 μg/ml, 0.5 μg/ml, 0.2 μg/ml) and were incubated at 37° C. for 2 hours. The coated antigens were blocked using BSA and washed with washing buffer. Dilutions of the parental murine anti-EMAPII antibody (starting at 1 μg/ml, two-fold serial dilution) were added to the antigens and incubated for 2 hours. The mixture was washed three times and anti-IgG-HRP antibody was added to the mixture and incubated for 1 hour. The mixture was washed with washing buffer three times. The substrate was added to the mixture and maintained for 30 minutes. After developing, stop solution was added and detected absorbance at the wavelength of 450 nm (FIG. 12). Bound antibody was detected with anti-mouse IgG-HRP conjugate. A concentration of 2.5 μg/ml antigen was selected for testing the chimeric clones.
(§2) The ability of mouse/human chimeric antibody BAP015_{—}1 to bind to the EMAPII antigen was determined by using the ELISA protocol provided by StemScience and the optimized conditions determined as described above. Bound chimeric antibody was detected with anti-human-IgG HRP conjugate (FIG. 13). All 3 clones tested bind to EMAPII. The binding curves of all 3 clones are very similar to each other and to the murine antibody.

[2] = target: T1, human EMAPII (endothelial monocyte …); test: ELISA, EMAPII antigen coated on the plate, antibody titrated (3 clones)
Method: as §1, §2

Binder	EC50 [1]	EC50 [2]
B1	0.0209 mg/L	
B2		0.0215 to 0.0302 mg/L
